Earlier results as cited in paper PMC3910004.

Target: T1, human interleukin-6 receptor (hIL-6R) (Homo sapiens) (UniProt P08887)
T1 sequence: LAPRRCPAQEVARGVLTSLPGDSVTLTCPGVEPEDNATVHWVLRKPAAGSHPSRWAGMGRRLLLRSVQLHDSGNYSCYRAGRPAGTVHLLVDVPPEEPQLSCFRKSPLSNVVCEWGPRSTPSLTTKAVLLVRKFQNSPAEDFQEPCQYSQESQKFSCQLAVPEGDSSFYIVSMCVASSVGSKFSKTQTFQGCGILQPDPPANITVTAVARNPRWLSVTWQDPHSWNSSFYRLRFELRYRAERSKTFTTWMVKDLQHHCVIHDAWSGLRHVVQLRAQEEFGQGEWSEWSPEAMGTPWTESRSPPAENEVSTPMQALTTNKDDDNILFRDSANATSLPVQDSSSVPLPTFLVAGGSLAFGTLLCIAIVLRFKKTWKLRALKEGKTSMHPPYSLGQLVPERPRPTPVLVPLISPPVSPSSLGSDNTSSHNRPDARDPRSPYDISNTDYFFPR
Settings: Cell binding by flow cytometry, 50 nM conjugate, 45 min, serum-free medium, 37 °C (stated for the uptake in cytotoxicity assays); binding buffer details not in …

Q: For GGGGAGGCUGUGGUGAGGG [AIR-3A], which Kd is on record?
A: 8.5 nM
